Patent US20250333441A1, “POLYPEPTIDE INHIBITORS AND USES THEREOF” (Neuracle Science Co., Ltd., priority 2021, published 2025)

Tests used:
FAM19A5 protein = FAM19A5 protein (Homo sapiens, UniProt Q7Z5A7); experiment: Co-immunoprecipitation of FLAG-tagged LRRC4 family constructs with recombinant FAM19A5 in HEK293 cells; format: binding; settings: HEK293 cells expressing FLAG-tagged construct, recombinant FAM19A5 protein (1 μM) 30 minutes; anti-FLAG immunoprecipitation
Procedure: To better understand the interaction between FAM19A5 and members of the LRRC4 protein family, HEK293 cells were modified to express a FLAG-tagged member of the LRRC4 protein family, i.e., LRRC4C protein, LRRC4 protein, or LRRC4B protein. Then, the HEK293 cells or primary cortical neurons were treated with recombinant FAM19A5 protein (1 μM) for 30 minutes, and the binding between FAM19A5 protein and the different members of the LRRC4 protein family was assessed using both co-immunoprecipitation and immunofluorescence assays.
For the co-immunoprecipitation assay, cell lysates from the different FAM19A5-treated HEK293 cells were collected and immunoprecipitated with an anti-FLAG antibody, anti-FAM19A5 (1-65) antibody, or a human IgG antibody (control). Immunoprecipitated proteins were immunoblotted with anti-FLAG and anti-FAM19A5 (3-2) antibodies. For the immunofluorescence assay, the HEK293 cells treated with the recombinant FAM19A5 protein were immunostained with anti-FAM19A5 (3-2) (to detect FAM19A5 protein expression) and anti-FLAG antibodies (to detect member of the LRRC4 protein family). The primary cortical neurons treated with the recombinant FAM19A5 protein were immunostained with anti-FAM19A5 (3-2) and anti-LRRC4B antibodies. The nuclei were stained with Hoechst33342 (blue).
To determine the specific motif or domain of the LRRC4B protein that is responsible for the binding to a FAM19A5 protein, various FLAG-tagged LRRC4B deletion constructs were generated (see Table 6 below). HEK293 cells were transfected with the different deletion constructs and then treated with recombinant FAM19A5 protein as described in Example 1. Then, the cell lysates from the different HEK293 cells were immunoprecipitated with the anti-FLAG antibody. The immunoprecipitated proteins were immunoblotted with anti-FLAG and anti-FAM19A5 (3-2) antibodies.
As described in Example 2, all members of the LRRC4 protein family were capable of binding to FAM19A5 protein to varying degrees. Therefore, to compare the bindings domains, the amino acid sequences of the LRRC4B, LRRC4, and LRRC4C proteins were aligned. […] Therefore, to assess whether the corresponding positions of LRRC4 and LRRC4C were important in the binding of these proteins to FAM19A5 protein, cDNAs encoding either (i) LRRC4C protein fragment (amino acids 354-527 of SEQ ID NO: 3; SEQ ID NO: 66) or (ii) LRRC4 protein fragment (amino acids 353-527 of SEQ ID NO: 1; SEQ ID NO: 67) were constructed (see Table 7). HEK293 cells were transfected to express either of the protein fragments and then treated with recombinant FAM19A5 protein as described in Example 1. Then, the cell lysates from the different HEK293 cells were immunoprecipitated with the anti-FLAG antibody. The immunoprecipitated proteins were immunoblotted with anti-FLAG and anti-FAM19A5 (3-2) antibodies.

[1] = system: mouse primary hippocampal neurons; experiment: Synapse formation (SYP, PSD95) in primary hippocampal neurons; format: cell-based; settings: 6 or 60 nM
Procedure: Next, it is generally known that neurites that outgrow from other neurites are capable of differentiating into axons, forming presynapses. Other neurites remain minor neurites and differentiate into dendrites, forming postsynapses. Therefore, whether the LRRC4B (453-576) protein fragment can also affect pre- and post-synaptic formation was also assessed. Briefly, mouse primary hippocampal neurons were cultured in vitro with the LRRC4B (453-576) protein fragment (6 or 60 nM). Control cells were treated with either DMSO (“Veh”) or the mutant LRRC4B (453-576) protein fragment which is not capable of binding to FAM19A5 protein (comprises alanine substitutions at positions 488 and 489). Then, at days 3 and 6 post initial culture, the expression level of synaptophysin (SYP; a presynaptic marker) was assessed. At day 7 post initial culture, the expression level of postsynaptic density 95 (PSD95; a postsynaptic marker) was assessed.
Primary hippocampal neurons were prepared from postnatal pups (postnatal day 1) of C57BL/6 (Nara Biotech, Seoul, Korea) as previously described by Beaudoin et al., Nature protocols 7(9): 1741-1754 (2012), which is incorporated herein by reference in its entirety. Briefly, cortices were dissected in Hank's buffered salt solution (HBSS) (Invitrogen, Carlsbad, CA, USA) and digested with 2.5% trypsin for 15 min at 37° C. […]

Chain of FAM19A5 protein (Q7Z5A7 44-132): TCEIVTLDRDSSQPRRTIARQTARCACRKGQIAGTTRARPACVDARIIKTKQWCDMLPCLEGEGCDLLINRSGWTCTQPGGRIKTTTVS

binding to FAM19A5 protein (co-immunoprecipitation) (FAM19A5 protein): able to bind to the FAM19A5 protein
B1: LRRC4B (453-576): LRRC4B fragment, amino acids 453-576 of SEQ ID NO: 2 (SEQ ID NO: 7); used hFc-fused (protein)
chain: VSAVDPVAAGGTGSGGGGPGGSGGVGGGSGGYTYFTTVTVETLETQPGEEALQPRGTEKEPPGPTTDGVWGGGRPGDAAGPASSSTTAPAPRSSRPTEKAFTVPITDVTENALKDLDDVMKTTK
modifications: human Fc fusion in use
notes: used hFc-fused
number of puncta colabeled with SYP and PSD95 [1]: increased number of puncta
